Test results from the supplement of paper PMC12042874.
± gives the uncertainty stated by the source.

Assay: amyloid nucleation score (Sup35N fusion, yeast selection) (log enrichment); library NNK3; higher = more nucleation; inactive = no reads after selection
In short: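 The nucleation score equals the log enrichment of output over input reads from DiMSum, centred on the mode score of non-aggregating sequences. It was computed only for sequences with 100 or more input reads. The reads came from Illumina sequencing of plasmid inserts from psi-negative yeast expressing Sup35N fused to peptides of 20 random codons, induced with 100 μM copper sulfate for 24 hours and grown 7 days at 30°C without adenine and uracil.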

Substance: CGNHASVWRIGTVRKD
- amyloid nucleation score: inactive

Substance: CGRGDSVLSI
- amyloid nucleation score: inactive

Substance: CGSVSSI
- amyloid nucleation score: inactive

Substance: CGSWYSCCKNINEVARSYTG
- amyloid nucleation score: inactive

Substance: CGVEHYWRGLVG
- amyloid nucleation score: inactive

Substance: CGVSWTVSIITDTFICN
- amyloid nucleation score: 2.76 ± 0.06

Substance: CHFPG
- amyloid nucleation score: inactive

Substance: CHMWSEHSTTLMYYSKKY
- amyloid nucleation score: 0.199 ± 0.41

Substance: CHYFNNLACYGSRIEMT
- amyloid nucleation score: inactive

Substance: CHYRYISYVENFPCSERVSI
- amyloid nucleation score: inactive

Substance: CICWQHDKVVAYSLSDAGMA
- amyloid nucleation score: inactive

Substance: CIFTIFNYQTLIELSHYFSR
- amyloid nucleation score: 1.82 ± 0.067

Substance: CIGTI
- amyloid nucleation score: inactive

Substance: CIGWRIM
- amyloid nucleation score: inactive

Substance: CIHSRTNNIRMTNCVRLGLG
- amyloid nucleation score: inactive

Substance: CINNLYGRNVGSYGECEPFA
- amyloid nucleation score: inactive

Substance: CIPCTVTFG
- amyloid nucleation score: inactive

Substance: CISFPDDWRSHTI
- amyloid nucleation score: inactive

Substance: CIVKTLQ
- amyloid nucleation score: inactive

Substance: CKCVNLQFAVTIHCGGFVPF
- amyloid nucleation score: 2.52 ± 0.072

Substance: CKFSDW
- amyloid nucleation score: inactive

Substance: CKGKSFFARSYS
- amyloid nucleation score: inactive

Substance: CKMRVILKFIKNL
- amyloid nucleation score: 0.48 ± 0.16

Substance: CKNQHFLSLIGFLYHIDPKR
- amyloid nucleation score: 0.709 ± 0.17

Substance: CKTGPEDTC
- amyloid nucleation score: inactive

Substance: CLATN
- amyloid nucleation score: inactive

Substance: CLCKLEWHNTYMGYKR
- amyloid nucleation score: 2.63 ± 0.08

Substance: CLCNRDRLSSNFGGMTDKLH
- amyloid nucleation score: inactive

Substance: CLCVTAGYISNTGGHRSWII
- amyloid nucleation score: inactive

Substance: CLFSLPWWCSMM
- amyloid nucleation score: inactive

Substance: CLGAGLRSGSAARLYEFGQV
- amyloid nucleation score: inactive

Substance: CLGFSL
- amyloid nucleation score: inactive

Substance: CLILCLIKYIERRFCWCFPW
- amyloid nucleation score: inactive

Substance: CLKGNFIVNSNVFKCVLWYS
- amyloid nucleation score: inactive

Substance: CLNHQASMVSTAPVEFFRFL
- amyloid nucleation score: inactive

Substance: CLPWHWMLNYFGYKNVKS
- amyloid nucleation score: inactive

Substance: CLQSQFLNFE
- amyloid nucleation score: inactive

Substance: CLRLGLIMDTKK
- amyloid nucleation score: inactive

Substance: CLSGRCRASMLPLGRVSKCD
- amyloid nucleation score: inactive

Substance: CLTYRSG
- amyloid nucleation score: inactive

Substance: CLVHEVPWRQMGSDLNKAAS
- amyloid nucleation score: inactive

Substance: CLVPFAGQWHTVEIMMSSCQ
- amyloid nucleation score: inactive

Substance: CLWRRCMPSHPMVEVSRLIW
- amyloid nucleation score: inactive

Substance: CLYNGMWSCVEWNSKGSMHL
- amyloid nucleation score: 1.26 ± 0.069

Substance: CMCRLEGRTSDLCQESGSCC
- amyloid nucleation score: -1.13 ± 1.5

Substance: CMDYYKMYISYYFDAGWVLS
- amyloid nucleation score: inactive

Substance: CMFVVFQLVTGHFTLLQYHG
- amyloid nucleation score: 1.82 ± 0.077

Substance: CMHGKGHSTFINNKDPVKVR
- amyloid nucleation score: inactive

Substance: CMSPYALGEISKRRVEVDSY
- amyloid nucleation score: inactive

Substance: CMSPYWML
- amyloid nucleation score: inactive

Substance: CMYILFINVCMATGANYGSY
- amyloid nucleation score: 1.58 ± 0.092

Substance: CNLYPCPYSKITDTAMLLGC
- amyloid nucleation score: inactive

Substance: CNMPGLVDDFLCHGICNNVV
- amyloid nucleation score: inactive

Substance: CNRVPVFFMFYVEQGVLRWN
- amyloid nucleation score: 2.13 ± 0.081

Substance: CPHMKLFRLLI
- amyloid nucleation score: inactive

Substance: CPYALMWSLSYSWSFPYRMS
- amyloid nucleation score: 0.286 ± 0.56

Substance: CQCEIF
- amyloid nucleation score: 0.065 ± 0.56

Substance: CQFFQFDLNYEFKLVSRAHK
- amyloid nucleation score: inactive

Substance: CQKRETVFIKRD
- amyloid nucleation score: inactive

Substance: CQLLHMELDNARRCEIKKPA
- amyloid nucleation score: inactive

Substance: CQQIWRLGQCVQLLFCTRSK
- amyloid nucleation score: 1.31 ± 0.11

Substance: CQSSVLLCSYCGY
- amyloid nucleation score: 2.65 ± 0.074

Substance: CQYRVTSYHSSWFFSEAMHP
- amyloid nucleation score: -0.268 ± 0.7

Substance: CRCHRLVNIPSMFWCLKFVG
- amyloid nucleation score: inactive

Substance: CRCKC
- amyloid nucleation score: inactive

Substance: CRDNTGFCRGSAAVFNRCTG
- amyloid nucleation score: inactive

Substance: CRDYYYHSQYCVVASVGTVV
- amyloid nucleation score: inactive

Substance: CREVINDSFPNATWLHSGLV
- amyloid nucleation score: inactive

Substance: CRHRYLDCCFGNWHP
- amyloid nucleation score: inactive

Substance: CRLELPMGSTTDDDRGQKVD
- amyloid nucleation score: -0.014 ± 0.53

Substance: CRLRGKLIYLLIMDGTKE
- amyloid nucleation score: inactive

Substance: CRLVINNYMSR
- amyloid nucleation score: 2.83 ± 0.065

Substance: CRMERGRFRLLKTQ
- amyloid nucleation score: inactive

Substance: CRNKFLVKGAFTRGSREN
- amyloid nucleation score: inactive

Substance: CRSAVKMGVPLRILLMY
- amyloid nucleation score: inactive

Substance: CRTSHSWVMYWLRREMCY
- amyloid nucleation score: inactive

Substance: CRVVDFG
- amyloid nucleation score: -0.107 ± 0.49

Substance: CRWEVCVVLFLMNCDKNGSC
- amyloid nucleation score: inactive

Substance: CSASAYDSVIIDRIIYLIRG
- amyloid nucleation score: inactive

Substance: CSEVFTSNWAYETASNCKRV
- amyloid nucleation score: 1.08 ± 0.12

Substance: CSEVGRS
- amyloid nucleation score: inactive

Substance: CSIHL
- amyloid nucleation score: inactive

Substance: CSLQLASDQGFSQRDDCTVH
- amyloid nucleation score: inactive

Substance: CSNKQSDTSFAYLTIMNMCP
- amyloid nucleation score: inactive

Substance: CSVTIGLIDTSPAIVSIPSD
- amyloid nucleation score: inactive

Substance: CSVVSWFEAGFRFNDLMNGV
- amyloid nucleation score: inactive

Substance: CTFDSSSNYADSAKLIG
- amyloid nucleation score: inactive

Substance: CTFQYSIIYRCYYRYGVVR
- amyloid nucleation score: inactive

Substance: CTITNWHNKYC
- amyloid nucleation score: inactive

Substance: CTLVLLKQ
- amyloid nucleation score: inactive

Substance: CTVNCMTNNATVLVVRGPLR
- amyloid nucleation score: 2.26 ± 0.067

Substance: CVASR
- amyloid nucleation score: inactive

Substance: CVCPDNDSPCDLGWVRRGNR
- amyloid nucleation score: inactive

Substance: CVDTDLVERWIAWVSSGVML
- amyloid nucleation score: 0.663 ± 0.21

Substance: CVFLCDDWFGFCNLNRRFKG
- amyloid nucleation score: 2.82 ± 0.074

Substance: CVFRWMLFSASEYDGRILKW
- amyloid nucleation score: inactive

Substance: CVGQAPGVSLGFQTYQLILW
- amyloid nucleation score: inactive

Substance: CVLKMLNNHHAHFILNGCRT
- amyloid nucleation score: inactive

Substance: CVLNW
- amyloid nucleation score: inactive

Substance: CVMCG
- amyloid nucleation score: inactive

Substance: CVSIKIASPPF
- amyloid nucleation score: 0.43 ± 0.3

Substance: CVVCCG
- amyloid nucleation score: inactive

Substance: CVYQLLGLVKMRNIRADGHA
- amyloid nucleation score: inactive

Substance: CWFFV
- amyloid nucleation score: 0.242 ± 0.39

Substance: CWFKLMLASMIKENTLSTYG
- amyloid nucleation score: inactive

Substance: CWHCVIDAGFLSQYVRVFYS
- amyloid nucleation score: inactive

Substance: CWYQPPNDNVYFMMILYI
- amyloid nucleation score: 1.97 ± 0.084

Substance: CYQSE
- amyloid nucleation score: inactive

Substance: CYRLQAFNARGTERTDAVYL
- amyloid nucleation score: inactive

Substance: CYRRSYASKLSDV
- amyloid nucleation score: inactive

Substance: CYRSISRRDPS
- amyloid nucleation score: inactive

Substance: CYSPQFVCYATGHVKSDLML
- amyloid nucleation score: inactive

Substance: CYWEPRSWISCRRPILRMSV
- amyloid nucleation score: inactive

Substance: DARNET
- amyloid nucleation score: inactive

Substance: DARVFKAVFRVLCDLVPASC
- amyloid nucleation score: inactive

Substance: DATSNC
- amyloid nucleation score: -0.232 ± 0.73

Substance: DCNSVFVLRVFNSVLFGIKD
- amyloid nucleation score: inactive

Substance: DCVGYRGGDGFAWTADELWS
- amyloid nucleation score: inactive

Substance: DCWYHMPHQIWH
- amyloid nucleation score: inactive

Substance: DDGGVTVVWTCGRVCIQMGN
- amyloid nucleation score: 0.399 ± 0.24

Substance: DDGSLDLMTKTA
- amyloid nucleation score: inactive

Substance: DDKRTENG
- amyloid nucleation score: inactive

Substance: DDLYMFMLIVRMLISQIKRV
- amyloid nucleation score: inactive

Substance: DDSLDVSCLEYRSAME
- amyloid nucleation score: inactive

Substance: DDTRYHAHTSNLGRITHRIQ
- amyloid nucleation score: inactive

Substance: DECSAHSSFQLSKSILFGQV
- amyloid nucleation score: inactive

Substance: DEGKSNPPF
- amyloid nucleation score: inactive

Substance: DEPAFQDFVLYTSSSSCWRY
- amyloid nucleation score: inactive

Substance: DEYATRIGYWCCK
- amyloid nucleation score: 1.7 ± 0.084

Substance: DFCLCNIRVFPEYRSHYGFG
- amyloid nucleation score: inactive

Substance: DFCMVVHCIKFMGLCRGGDV
- amyloid nucleation score: 1.02 ± 0.17

Substance: DFCMWSYRHRDLCNSVFISS
- amyloid nucleation score: inactive

Substance: DFFLDYL
- amyloid nucleation score: inactive

Substance: DFFNWWSSVWFYLLMGRKVE
- amyloid nucleation score: inactive

Substance: DFGCKSINCFLNATQ
- amyloid nucleation score: inactive

Substance: DFGKNSLWSSREDNLKYWFM
- amyloid nucleation score: inactive

Substance: DFHDLEWILNIEGACEEQGT
- amyloid nucleation score: inactive

Substance: DFHYFKRVRNQGWNQKRKRY
- amyloid nucleation score: inactive

Substance: DFIFIQILDVNCRWDRCMYC
- amyloid nucleation score: 0.444 ± 0.16

Substance: DFNDSLFLPRIDTPSLVFLQ
- amyloid nucleation score: inactive

Substance: DFNLFKAQIYLWNSFDVSEF
- amyloid nucleation score: 0.99 ± 0.14

Substance: DFRSSRLHSIITTQFIYFYD
- amyloid nucleation score: inactive

Substance: DFSFSIRVGSSALGVSKNTE
- amyloid nucleation score: 1.31 ± 0.093

Substance: DGILTVCYEVVNWNSSSVLL
- amyloid nucleation score: inactive

Substance: DGLKNYRWYRFNTLDDGLAG
- amyloid nucleation score: inactive

Substance: DGNLWMKSVCCWTKVFIELL
- amyloid nucleation score: 1.37 ± 0.12

Substance: DGYKMCRDGIGWIGT
- amyloid nucleation score: inactive

Substance: DHGSIRRMGELHWMQLR
- amyloid nucleation score: inactive

Substance: DHHQIFYVWSLPMA
- amyloid nucleation score: inactive

Substance: DHRRLPSCPIFDWFTLNRGP
- amyloid nucleation score: inactive

Substance: DIPAVINVMGSVYDGR
- amyloid nucleation score: inactive

Substance: DISIGQRVRCTIFSGIGPLT
- amyloid nucleation score: -0.913 ± 2.5

Substance: DIVILSTSASSTS
- amyloid nucleation score: inactive

Substance: DIWFGSSKKSVMRV
- amyloid nucleation score: inactive

Substance: DIWYKVLYMPVLTV
- amyloid nucleation score: inactive

Substance: DIWYRIKMFSIWKFMSHTTG
- amyloid nucleation score: inactive

Substance: DKELKPNFRWGRNFYSFYIC
- amyloid nucleation score: inactive

Substance: DKHMIGLYNPRASIELL
- amyloid nucleation score: inactive

Substance: DLCAEFWIYWHVTMPVYLEM
- amyloid nucleation score: inactive

Substance: DLFGCPDLMMYTELIMLYW
- amyloid nucleation score: inactive

Substance: DLFSFYVGCLKSHPENPSLM
- amyloid nucleation score: inactive
